Data published in publication PMC9482650, “Quantitative fragmentomics allow affinity mapping of interactomes” (Nature Communications, 2022).
Each block holds one binder with its values, some of them ahead of it.

What was measured:
Assay in all cases: holdup assay
Parameters in all cases: key: below the threshold = too weak to quantify, mostly under pKd 3.1 to 4
[1] = target: GRIP2_7, Q9C0E4
[2] = target: T1, DFNB31_2, Q9P202
T1 sequence (Q9P202 274-371, limits assumed, looked up): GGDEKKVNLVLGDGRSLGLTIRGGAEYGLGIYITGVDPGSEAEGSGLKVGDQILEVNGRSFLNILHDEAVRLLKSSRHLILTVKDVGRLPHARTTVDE

[3] = target: FRMPD2_3, Q68DX3
[4] = target: MAGI1_2, Q96QZ7
[5] = target: LDB3, O75112
[6] = target: T2, PDZRN3_1, Q9UPQ7
T2 sequence (Q9UPQ7 244-349, limits assumed, looked up): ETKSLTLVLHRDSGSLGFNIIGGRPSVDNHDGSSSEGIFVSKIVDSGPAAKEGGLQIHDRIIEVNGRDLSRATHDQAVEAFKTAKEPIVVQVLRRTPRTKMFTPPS

[7] = target: T3, MPP7, Q5T2T1
T3 sequence (Q5T2T1 134-230, limits assumed, looked up): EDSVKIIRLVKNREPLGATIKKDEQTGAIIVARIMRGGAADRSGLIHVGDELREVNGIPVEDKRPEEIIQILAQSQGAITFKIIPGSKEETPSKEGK

[8] = target: Inadl_10, Q8NI35
[9] = target: T4, GRIP1_3, Q9Y3R0
T4 sequence (Q9Y3R0 247-346, limits assumed, looked up): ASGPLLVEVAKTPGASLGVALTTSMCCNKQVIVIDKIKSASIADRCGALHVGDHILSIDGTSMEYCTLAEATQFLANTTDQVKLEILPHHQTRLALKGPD

[10] = target: T5, DLG3_2, Q92796
T5 sequence (Q92796 221-321, limits assumed, looked up): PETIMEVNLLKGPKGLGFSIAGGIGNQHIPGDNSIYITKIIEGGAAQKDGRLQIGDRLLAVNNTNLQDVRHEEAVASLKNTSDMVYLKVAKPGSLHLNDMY

[11] = target: GIPC2, Q8TF65
[12] = target: T6, SYNJ2BP, P57105
T6 sequence (P57105 8-110, limits assumed, looked up): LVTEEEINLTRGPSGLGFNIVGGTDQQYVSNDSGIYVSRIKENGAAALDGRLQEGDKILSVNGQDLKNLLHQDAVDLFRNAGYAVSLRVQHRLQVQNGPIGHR

[13] = target: GRIP2_5, Q9C0E4
[14] = target: Inadl_2, Q8NI35
[15] = target: MAGI2_5, Q86UL8
[16] = target: T7, HTRA4, P83105
T7 sequence (P83105 378-476, limits assumed, looked up): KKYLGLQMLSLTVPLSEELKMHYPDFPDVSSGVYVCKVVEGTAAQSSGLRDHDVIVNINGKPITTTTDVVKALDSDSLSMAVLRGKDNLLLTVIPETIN

[17] = target: T8, ARHGAP21, Q5T5U3
T8 sequence (Q5T5U3 45-169, limits assumed, looked up): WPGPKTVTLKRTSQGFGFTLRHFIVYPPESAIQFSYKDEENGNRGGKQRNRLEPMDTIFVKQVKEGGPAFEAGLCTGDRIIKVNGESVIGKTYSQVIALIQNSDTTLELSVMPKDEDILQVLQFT

[18] = target: T9, LIN7B, Q9HAP6
T9 sequence (Q9HAP6 88-185, limits assumed, looked up): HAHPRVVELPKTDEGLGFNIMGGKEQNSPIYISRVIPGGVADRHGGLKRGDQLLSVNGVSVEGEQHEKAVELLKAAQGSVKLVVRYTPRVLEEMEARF

[19] = target: PICK1, Q9NRD5
[20] = target: Inadl_6, Q8NI35
[21] = target: T10, MPP6, Q9NZW5
T10 sequence (Q9NZW5 125-219, limits assumed, looked up): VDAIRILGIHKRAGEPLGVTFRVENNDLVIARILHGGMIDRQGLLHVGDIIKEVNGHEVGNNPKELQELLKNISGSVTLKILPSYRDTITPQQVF

[22] = target: T11, NHERF3_1, Q5T2W1
T11 sequence (Q5T2W1 4-100, limits assumed, looked up): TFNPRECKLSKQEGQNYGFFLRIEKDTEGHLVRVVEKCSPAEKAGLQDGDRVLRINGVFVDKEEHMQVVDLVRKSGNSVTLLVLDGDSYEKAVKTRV

[23] = target: T12, SNTG1, Q9NSN8
T12 sequence (Q9NSN8 52-150, limits assumed, looked up): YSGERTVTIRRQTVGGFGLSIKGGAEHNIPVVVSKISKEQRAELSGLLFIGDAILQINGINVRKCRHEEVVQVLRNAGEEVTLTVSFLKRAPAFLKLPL

[24] = target: MAGI3_2, Q5TCQ9
[25] = modified: phospho on S at position -3 from the C-terminal residue
[26] = plain residues with an end cap or a label only (N-terminal biotin on a linker: ado-ado)

Sequence of MAGI2_5, Q86UL8 (Q86UL8 915-1017): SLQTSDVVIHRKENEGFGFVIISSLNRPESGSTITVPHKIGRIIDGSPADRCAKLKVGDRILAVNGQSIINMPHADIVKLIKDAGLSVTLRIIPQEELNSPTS
Sequence of Inadl_6, Q8NI35 (Q8NI35 1058-1167): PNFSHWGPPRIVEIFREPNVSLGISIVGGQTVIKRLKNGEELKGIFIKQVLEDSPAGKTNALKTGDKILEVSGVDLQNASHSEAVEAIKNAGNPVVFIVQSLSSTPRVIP
Sequence of MAGI1_2, Q96QZ7 (Q96QZ7 456-580): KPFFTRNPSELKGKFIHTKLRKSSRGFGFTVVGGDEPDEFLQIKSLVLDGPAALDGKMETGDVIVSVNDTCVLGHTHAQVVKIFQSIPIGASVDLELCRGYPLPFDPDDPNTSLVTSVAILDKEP
Sequence of Inadl_2, Q8NI35 (Q8NI35 238-335): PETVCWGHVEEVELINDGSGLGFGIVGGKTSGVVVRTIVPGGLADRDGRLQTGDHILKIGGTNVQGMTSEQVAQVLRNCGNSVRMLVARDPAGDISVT
Sequence of Inadl_10, Q8NI35 (Q8NI35 1673-1763): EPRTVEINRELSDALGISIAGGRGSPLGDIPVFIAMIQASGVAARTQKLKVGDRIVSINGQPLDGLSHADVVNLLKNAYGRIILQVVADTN
Sequence of GIPC2, Q8TF65 (Q8TF65 112-203): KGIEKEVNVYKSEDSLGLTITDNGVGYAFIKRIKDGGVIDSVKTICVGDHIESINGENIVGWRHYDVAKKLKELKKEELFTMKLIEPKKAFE
Sequence of PICK1, Q9NRD5 (Q9NRD5 17-115): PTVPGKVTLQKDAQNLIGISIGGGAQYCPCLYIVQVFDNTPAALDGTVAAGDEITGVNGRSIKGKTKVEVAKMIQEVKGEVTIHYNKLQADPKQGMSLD
Sequence of GRIP2_5, Q9C0E4 (Q9C0E4 544-642): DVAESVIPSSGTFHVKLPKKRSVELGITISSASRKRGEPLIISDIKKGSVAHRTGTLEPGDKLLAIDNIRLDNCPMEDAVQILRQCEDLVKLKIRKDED
Sequence of FRMPD2_3, Q68DX3 (Q68DX3 1073-1166): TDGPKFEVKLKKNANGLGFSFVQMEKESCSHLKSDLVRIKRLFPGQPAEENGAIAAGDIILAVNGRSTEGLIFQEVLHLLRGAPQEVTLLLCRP
Sequence of LDB3, O75112 (O75112 1-94): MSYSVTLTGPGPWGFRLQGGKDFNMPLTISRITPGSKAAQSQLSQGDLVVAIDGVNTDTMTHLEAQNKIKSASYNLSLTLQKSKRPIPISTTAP
Sequence of MAGI3_2, Q5TCQ9 (Q5TCQ9 398-503): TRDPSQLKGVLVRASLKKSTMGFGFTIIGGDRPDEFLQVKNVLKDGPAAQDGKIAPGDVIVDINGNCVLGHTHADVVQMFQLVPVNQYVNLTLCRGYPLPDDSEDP
Sequence of GRIP2_7, Q9C0E4 (Q9C0E4 934-1023): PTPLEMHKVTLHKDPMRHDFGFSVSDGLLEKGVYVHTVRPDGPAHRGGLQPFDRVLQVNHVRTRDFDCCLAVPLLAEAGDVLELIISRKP

pKd [1, 25]: below the threshold
pKd [2, 25]: below the threshold
pKd [3, 25]: below the threshold
pKd [4, 25]: below the threshold
pKd [5, 25]: below the threshold
pKd [6, 25]: below the threshold
pKd [7, 25]: below the threshold
pKd [8, 25]: below the threshold
pKd [9, 25]: below the threshold
pKd [10, 25]: below the threshold
pKd [11, 25]: below the threshold
pKd [12, 25]: 4.48
pKd [13, 25]: below the threshold
pKd [14, 25]: below the threshold
pKd [15, 25]: below the threshold
pKd [16, 25]: 3.72
pKd [17, 25]: below the threshold
pKd [18, 25]: below the threshold
pKd [19, 25]: below the threshold
pKd [20, 25]: below the threshold
pKd [21, 25]: below the threshold
pKd [22, 25]: below the threshold
pKd [23, 25]: 3.94
pKd [24, 25]: 4.1
Binder: RRVRKLPSTTL [RPS6KA1_-3P, Q15418]

pKd [1, 26]: below the threshold
pKd [2, 26]: below the threshold
pKd [3, 26]: below the threshold
pKd [4, 26]: below the threshold
pKd [5, 26]: below the threshold
pKd [6, 26]: below the threshold
pKd [7, 26]: below the threshold
pKd [8, 26]: below the threshold
pKd [9, 26]: below the threshold
pKd [10, 26]: below the threshold
pKd [11, 26]: below the threshold
pKd [12, 26]: below the threshold
pKd [13, 26]: below the threshold
pKd [14, 26]: below the threshold
pKd [15, 26]: below the threshold
pKd [16, 26]: below the threshold
pKd [17, 26]: 4.04
pKd [18, 26]: below the threshold
pKd [19, 26]: below the threshold
pKd [20, 26]: below the threshold
pKd [21, 26]: 3.61
pKd [22, 26]: below the threshold
pKd [23, 26]: below the threshold
pKd [24, 26]: below the threshold
Binder: LETREPTNTL [GRIP1, Q9Y3R0]

pKd [1, 26]: below the threshold
pKd [2, 26]: below the threshold
pKd [3, 26]: below the threshold
pKd [4, 26]: below the threshold
pKd [5, 26]: below the threshold
pKd [6, 26]: below the threshold
pKd [7, 26]: below the threshold
pKd [8, 26]: below the threshold
pKd [9, 26]: below the threshold
pKd [10, 26]: below the threshold
pKd [11, 26]: below the threshold
pKd [12, 26]: below the threshold
pKd [13, 26]: below the threshold
pKd [14, 26]: below the threshold
pKd [15, 26]: below the threshold
pKd [16, 26]: below the threshold
pKd [17, 26]: 4.18
pKd [18, 26]: below the threshold
pKd [19, 26]: 3.99
pKd [20, 26]: below the threshold
pKd [21, 26]: 3.91
pKd [22, 26]: 3.98
pKd [23, 26]: below the threshold
pKd [24, 26]: below the threshold
Binder: GCQGETEDVL [PTH2R, P49190]
